Source: the supplement of paper PMC7877785
± gives the uncertainty stated by the source.

Experiment: self-splicing fitness, log relative to wild type (ln ratio); higher = more splicing; Tetrahymena group I intron in knt gene, E. coli kanamycin selection, DiMSum; sequences stand for … in CUCUCU…GGAGGGAAAAGUUAUCAGGCAUGCACCUGGUAGCUAGUCUUUAAACCAAUAGAUUGCAUCGGUUUAAAAGGCAAGACCGUCAAAUUGCGGGAAAGGGGUCAACAGCCGUUCAGUACCAAGUCUCAGGGGAAACUUUGAGAUGGCCUUGCAAAGGGUAUGGUAAUAAGCUGACGGACAUGGUCCUAACCACGCAGCCAAGUCCUAAGUCAACAGAUCUUCUGUUGAUAUGGAUGCAGUUCACAGACUAAAUGUCGGUCGGGGAAGAUGUAUUCUUCUCAUAAGAUAUAGUCGGACCUCUCCUUAAUGGGAGCUAGCGGAUGAAGUGAUGCAACACUGGAGCCGCUGGGAACUAAUUUGUAUGCGAAAGUAUAUUGAUUAGUUUUGGAGUACUCGUGGUCG
Method in brief: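 Pooled colonies went to amplicon sequencing on an Illumina HiSeq 2500 after six replicate transformations. The plates were LB agar with 100 μg/mL carbenicillin, 50 μM IPTG and 0.2% rhamnose, with or without 25 μg/mL kanamycin, incubated overnight at 37°C or 30°C. The E. coli BL21(DE3) library had all eight P1ex-region intron nucleotides randomised, the intron placed in the knt kanamycin-resistance gene on pET-22b(+). DiMSum fitness is the error-weighted combination of replicate fold changes, kanamycin against none, normalised to wild type.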

| Sequence | self-splicing fitness (ln) (30 °C) | self-splicing fitness (ln) (37 °C) |
| --- | --- | --- |
| AAGUAGCAAUAUUACGUAGC | -3.25 ± 0.33 | -2.3 ± 0.31 |
| GGUUAGCAAUAUUACGAAUU | 0.0573 ± 0.13 | -0.482 ± 0.16 |
| AGUCAGCAAUAUUACGGAUG | -1.36 ± 0.054 | 0.106 ± 0.069 |
| AUUCAGCAAUAUUACGAAGU | -1.52 ± 0.11 | -0.236 ± 0.12 |
| CGAAAGCAAUAUUACGGAAA | -2.9 ± 0.28 | -2.49 ± 0.22 |
| CUGGAGCAAUAUUACGCAUC |  | -0.757 ± 0.42 |
| CUCAAGCAAUAUUACGUUCG | -3.18 ± 0.18 | -3 ± 0.26 |
| ACCGAGCAAUAUUACGGAUA | -2.8 ± 0.35 | -2.33 ± 0.27 |
| UACUAGCAAUAUUACGCACG | -0.877 ± 0.089 | -0.992 ± 0.11 |
| GUCGAGCAAUAUUACGGUUG | -2.68 ± 0.2 | -2.15 ± 0.26 |
| GCUCAGCAAUAUUACGCUCU | -1.09 ± 0.082 | 0.39 ± 0.12 |
| GACCAGCAAUAUUACGUUGA | -0.701 ± 0.053 | -0.203 ± 0.066 |
| UGUAAGCAAUAUUACGUUAU | -3.54 ± 0.22 | -2.73 ± 0.26 |
| GGCUAGCAAUAUUACGAGAA |  | -0.208 ± 0.37 |
| GGUUAGCAAUAUUACGUUGA | -2 ± 0.2 | -1.54 ± 0.17 |
| GAAUAGCAAUAUUACGGGGA | -2.99 ± 0.19 | -2.39 ± 0.19 |
| GGUCAGCAAUAUUACGAGAC | -2.27 ± 0.23 | -1.29 ± 0.31 |
| AGAUAGCAAUAUUACGCGCA | -0.594 ± 0.063 | -0.129 ± 0.094 |
| UUAUAGCAAUAUUACGGUUA | -0.941 ± 0.08 | -0.0464 ± 0.084 |
| UUACAGCAAUAUUACGGACG | -0.683 ± 0.079 | -0.00562 ± 0.096 |
| CCGUAGCAAUAUUACGAUAU | -2 ± 0.19 | -3.31 ± 0.43 |
| GAAUAGCAAUAUUACGGUUU | -1.03 ± 0.078 | -1.11 ± 0.1 |
| GUGUAGCAAUAUUACGUUGG | -4.05 ± 0.42 | -2.06 ± 0.21 |
| CCGGAGCAAUAUUACGUCCU | -4.9 ± 0.31 | -2.29 ± 0.16 |
| GUACAGCAAUAUUACGGGAG | -3.04 ± 0.21 | -1.92 ± 0.15 |
| CGUUAGCAAUAUUACGGAAA | -1.93 ± 0.38 | -2.11 ± 0.31 |

| Sequence | self-splicing fitness (ln) (30 °C) | self-splicing fitness (ln) (37 °C) |
| --- | --- | --- |
| UCUUAGCAAUAUUACGGCAA |  | -1.57 ± 0.37 |
| AUGAAGCAAUAUUACGCGGA | -0.591 ± 0.1 | -0.105 ± 0.12 |
| GUUAAGCAAUAUUACGUCUC | -0.932 ± 0.1 | -0.514 ± 0.12 |
| GGUUAGCAAUAUUACGACCU | -1.72 ± 0.35 | -0.0941 ± 0.33 |
| AUCAAGCAAUAUUACGUAAA | -2.59 ± 0.13 | -1.11 ± 0.12 |
| CCUAAGCAAUAUUACGUCUU | -3.47 ± 0.18 | -2.42 ± 0.22 |
| GUCCAGCAAUAUUACGGUAC | -2.97 ± 0.18 | -1.92 ± 0.17 |
| CUGUAGCAAUAUUACGUCCA |  | -2.89 ± 0.48 |
| CCCAAGCAAUAUUACGAAAC | -2.72 ± 0.22 | -2.04 ± 0.27 |
| ACGGAGCAAUAUUACGACGC | -1.26 ± 0.15 | -1.11 ± 0.17 |
| UCCAAGCAAUAUUACGCAGU | -2.03 ± 0.082 | -0.856 ± 0.093 |
| CCUGAGCAAUAUUACGGACU | -1.55 ± 0.13 | -3.3 ± 0.32 |
| GCGAAGCAAUAUUACGUGGA | -1.9 ± 0.13 | -2.88 ± 0.21 |
| AUAGAGCAAUAUUACGGACU | -1.15 ± 0.13 | -1.65 ± 0.23 |
| GUUAAGCAAUAUUACGGAUC | -0.695 ± 0.09 | 0.135 ± 0.12 |
| GGCUAGCAAUAUUACGCGGC | -3.55 ± 0.43 | -2.19 ± 0.46 |
| ACCGAGCAAUAUUACGGAGG | -3.01 ± 0.2 | -2.72 ± 0.23 |
| GUUUAGCAAUAUUACGCGGG | -2.42 ± 0.19 | -1.89 ± 0.19 |
| AGGAAGCAAUAUUACGGCCA | -0.118 ± 0.14 | 0.223 ± 0.19 |
| AAGUAGCAAUAUUACGAGGC | -3.44 ± 0.29 |  |
| AAAUAGCAAUAUUACGGCCG | -0.799 ± 0.23 | 0.0219 ± 0.35 |
| GACGAGCAAUAUUACGCUAU | -3.39 ± 0.2 | -2.42 ± 0.25 |
| CUUAAGCAAUAUUACGGGAU | -2.82 ± 0.17 | -1.94 ± 0.19 |
| UUAAAGCAAUAUUACGAGCA | -0.0954 ± 0.082 | 0.177 ± 0.11 |
| CCGUAGCAAUAUUACGUCUG | -0.102 ± 0.054 | 0.303 ± 0.067 |
| AAGAAGCAAUAUUACGGCCA | -0.587 ± 0.097 | -0.00293 ± 0.12 |

| Sequence | self-splicing fitness (ln) (30 °C) | self-splicing fitness (ln) (37 °C) |
| --- | --- | --- |
| CAACAGCAAUAUUACGAUAG | -0.377 ± 0.052 | 0.653 ± 0.07 |
| ACAUAGCAAUAUUACGUUGU | -3.63 ± 0.15 | -2.78 ± 0.2 |
| UGUCAGCAAUAUUACGUUAC | -3.4 ± 0.27 | -2.77 ± 0.43 |
| CUGCAGCAAUAUUACGCGGU | -2.5 ± 0.15 | -2.89 ± 0.23 |
| UCCGAGCAAUAUUACGUCGA | -1.21 ± 0.16 | -0.238 ± 0.13 |
| AAGUAGCAAUAUUACGAAAU | -2.3 ± 0.2 | -0.59 ± 0.18 |
| UGAGAGCAAUAUUACGUUCC |  | -2.11 ± 0.47 |
| AGGUAGCAAUAUUACGUAUG | -3.698 ± 0.027 | -2.53 ± 0.038 |
| GGGAAGCAAUAUUACGCAGC | -1.29 ± 0.14 | -1.12 ± 0.19 |
| GCUUAGCAAUAUUACGAAUU | -1.06 ± 0.076 | -0.24 ± 0.097 |
| CGUCAGCAAUAUUACGACCC | -0.525 ± 0.18 | 0.0394 ± 0.17 |
| CCUGAGCAAUAUUACGUCGG | -4.36 ± 0.36 | -2.47 ± 0.23 |
| CACAAGCAAUAUUACGCCUC | -2.86 ± 0.2 | -1.95 ± 0.23 |
| GACAAGCAAUAUUACGUAAC | -1.64 ± 0.077 | -1.22 ± 0.11 |
| CUAGAGCAAUAUUACGCGCA | -1.95 ± 0.33 | -1.21 ± 0.35 |
| GUGCAGCAAUAUUACGUACG | -2.19 ± 0.086 | -1.18 ± 0.08 |
| ACCGAGCAAUAUUACGAGGC | -4.59 ± 0.29 | -3.23 ± 0.33 |
| CUCGAGCAAUAUUACGGUUG | -3.73 ± 0.13 | -2.07 ± 0.13 |
| CGUAAGCAAUAUUACGAACU | -1.27 ± 0.083 | -0.364 ± 0.074 |
| UAGAAGCAAUAUUACGGGCA | -1.17 ± 0.16 | -0.144 ± 0.12 |
| AUCUAGCAAUAUUACGGCAG | -2.04 ± 0.17 | -0.157 ± 0.16 |
| AAUAAGCAAUAUUACGAGUA | -1.67 ± 0.19 | -0.925 ± 0.16 |
| GCUUAGCAAUAUUACGGACC | -1.17 ± 0.17 | 0.79 ± 0.22 |
| UCUCAGCAAUAUUACGCAAU | -2.45 ± 0.23 | -1.89 ± 0.23 |
| CUUAAGCAAUAUUACGAGUC | -3.23 ± 0.33 | -2.33 ± 0.29 |
| AUUGAGCAAUAUUACGGAUG | -3.43 ± 0.28 | -2.69 ± 0.38 |
